{"source": "paper doi:10.1101/2022.10.20.22281069", "about": "(medRxiv, 2022)"}
{"target": "PCNA-WT (Proliferating Cell Nuclear Antigen, wild type) (human, UniProt P12004 1-261)", "sequence (P12004 whole entry)": "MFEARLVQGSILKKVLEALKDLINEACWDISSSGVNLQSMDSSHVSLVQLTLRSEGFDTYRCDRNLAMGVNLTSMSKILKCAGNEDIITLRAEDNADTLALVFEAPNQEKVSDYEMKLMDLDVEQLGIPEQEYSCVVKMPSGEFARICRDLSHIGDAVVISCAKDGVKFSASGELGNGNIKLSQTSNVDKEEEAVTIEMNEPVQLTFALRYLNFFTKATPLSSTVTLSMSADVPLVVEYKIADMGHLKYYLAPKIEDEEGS", "test": "ITC"}
{"binder": "DKSGMKSIDTFFGVKNKKKIGKV", "note": "[RNaseH2B PIP-box peptide]", "binding result": "binds"}
{"binder": "STQGRLDDFFKVTGSL", "note": "[FEN1 PIP-box peptide]", "binding result": "binds"}
{"binder": "KANRQVSITGFFQRK", "note": "[pol δ p66 PIP-box peptide]", "binding result": "binds"}
